In the supplement of paper PMC9170038:

System: MS2 coat protein
Assay: apparent KD of MS2 coat protein; designed switch direction (-1 OFF switch, 1 ON switch): -1; higher = weaker reporter binding
How it was run: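 RNA switches sharing common flanks were transcribed by stalled E. coli RNA polymerase on Illumina chips. A doubling series of SNAP-549-labelled MS2 coat protein, from 0.7 or 1.5 nM to 3 µM, was applied in Tris-HCl pH 7.5 buffer with KCl, MgCl2, BSA, DTT, tRNA and Tween-20. Each step lasted 0.8–1.5 h at the bottom of the series and 10–20 min at the top. Normalised cluster fluorescence was curve-fitted, giving apparent KD as the per-design median over clusters.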

[1] = input ligand: microRNA oligo, concentration not stated
[2] = Eterna round: R95, input ligand: microRNA oligo, concentration not stated

Sequence	apparent KD of MS2 coat protein (input ligand: FMN 200 uM) [nM]	apparent KD of MS2 coat protein (input ligand: none) [nM]	also measured
CCAUAGGGAGGAUAUCCAAUAUAUGACAUGAGGAUCACCCAUGUUUCCACUCGUACCUCCGGAGAAGGCCCAUAAC [Ex5 #8] (Eterna round: R97, puzzle: Exclusion 5)	24.4	21.4	–
CCAUGUCCGGAGGAUAUGCGCAGACUUACUGCAGCAGAAGGUUGGACUUGAGGAUCACCCAAGUGACCAUUUGU [Esrebionra] (Eterna round: R97, puzzle: Exclusion 6)	445	36	–
CCCAAAGGGACAAGCUUUUACAUGAGGAUCACCCAUGUUUUGGGAGCUCGUCUUAUGGGCCCGGGAAACCCGGGCCC [-38, -58.7 kcal, A 22%] (Eterna round: R97, puzzle: Sensor, turn-off variant 1)	17.1	17.2	–
CCCAGAGCGUAAGGAUAUACAUGAGGAUCACCCAUGUCUACAAUAAUAGUACUAUAUGAAGUCGUGUAGAAGGUACGCGCAGGU [Eternabot solution 46] (Eterna round: R96, puzzle: Exclusion NG 2)	–	–	apparent KD of MS2 coat protein [1]: 30.7 nM
CCCAGUUAGAGAGGAUAUCGUACAUGAGGAUCACCCAUGUAAUAAAUGAGGAUUUCGGGUGUCUACGAGAAGGCUCGGAUAGGC [Ostracism 30 - Jieux - Exclusion NG 2] (Eterna round: R96, puzzle: Exclusion NG 2)	75.8	35.9	apparent KD of MS2 coat protein [1]: 27.1 nM
CCCAGUUAGUGAGGAUAUCUUACAUGAGGAUCACCCAUGUAAUAAAUGAGGAUUUCGGGUGUCUAAGAGAAGGCACGGAUAGGC [Ostracism 25 - Jieux - Exclusion NG 2] (Eterna round: R96, puzzle: Exclusion NG 2)	27.1	27	apparent KD of MS2 coat protein [1]: 16.7 nM
CCCAUGUCAGGAUAUCUAAGAGAGGAUCAGCCCUCUCCUCCGGAGAAGGGACAUGAGGAUCACCCAUGUAAAAC [Zasorequ] (puzzle: Exclusion 4)	–	–	apparent KD of MS2 coat protein (Eterna round: R95, input ligand: FMN 200 uM): 30.5 nM; apparent KD of MS2 coat protein [2]: 145 nM; apparent KD of MS2 coat protein (Eterna round: R95, input ligand: none): 204 nM
CCCAUGUCAGGAUAUUAAUUGAGCAGAAAGCCCUGUUCACUUGAGAAGGGACAUGAGGAUCACCCAUGUAAAAC [Belexeedte] (Eterna round: R97, puzzle: Exclusion 4)	19.2	507	–
CCCGAGUUAGGAUAUAAACCAAAGUAACCAGCAGCUUAGCUUUAGAAGGAACAUGAGGAUCACCCAUGUGGUCU [Eternabot (L2) Solution 70] (Eterna round: R97, puzzle: Exclusion 4)	119	107	–
CCCGUGUUAGGAUAUACGGCACACCCGCCAGCGGGUAUAUAGUAGAAGGAACAUGAGGAUCACCCAUGUAUAGC [Sobiza] (puzzle: Exclusion 4)	–	–	apparent KD of MS2 coat protein [2]: 15.6 nM
CCCUCACAUGAGGAUCACCCAUGUCAGGAUAUCUCAGUGCAUCCACACGGACGCAUCAAGAGAAGGGACAAAAC [Ququ] (Eterna round: R97, puzzle: Exclusion 1)	27.8	18.4	–
CCCUCACAUGAGGAUCACCCAUGUUAGGAUAUGGGAGGUACCUGCGUGAGCGCACCACCCAGAAGGGACCAGGC [Eternabot (L2) Solution 4] (Eterna round: R97, puzzle: Exclusion 1)	130	159	–
CCGAAACAUGAGGAUCACCCAUGUCAGGAUAUUCCAAAAUCGUCGAAAGACGAUAACAGAAGAAGGGACAUCGG [Fiskxlusion 1 - Jieux - Exclusion 1] (Eterna round: R97, puzzle: Exclusion 1)	93.7	58	–
CCGAAUAUGCAGGAUAUCGUAUCGGAGACGAUACGAGAAGGGCAAACAUGAGGAUCACCCAUGUUCCUUAACGG [Mat - Exclusion 6 - Eli Mod - D75] (puzzle: Exclusion 6)	–	–	apparent KD of MS2 coat protein [2]: 15.9 nM
CCGACGUGAGGAUAUCCAUCUGGAUCAGACAAGAUCCUGAUGGAGAAGGCACAUGAGGAUCACCCAUGUUACGG [Mat - Exclusion 4 - Eli Mod - D59] (Eterna round: R97, puzzle: Exclusion 4)	738	412	–
CCGAUCAGUGUCAGGAUAUCUACAGGACUGCCUCGAGAGAAGGGACAUGAGGAUCACCCAUGUACCCGGGCAAG [BmEX4 B.2] (Eterna round: R97, puzzle: Brourd's mod of Exclusion 4)	15	12.8	–
CCGAUGUCAGGAUAUAGCGGUCGCUGCCACGGUGGAGUCUGCUAGAAGGGACAUGAGGAUCACCCAUGUCGAAC [Eternabot (Original) Solution 49] (Eterna round: R97, puzzle: Exclusion 4)	57.7	23.4	–
CCGAUGUCAGGAUAUCGUGCAUACAACGAAAGUUCUAUGUGCGAGAAGGGACAUGAGGAUCACCCAUGUUACGG [Omei Ex4 A2] (Eterna round: R97, puzzle: Exclusion 4)	131	465	–
CCGCUACAUGAGGAUCACCCAUGUCAGGAUAUCGUACGUUCGUCGAUAGACGAUCGUACGAGAAGGGUGUGCGG [Mat - Exclusion 1 - Eli Mod - D36] (Eterna round: R97, puzzle: Exclusion 1)	81.4	139	–
CCGCUGUGAGGAUAUUAGUAGUAGUCAGAAAAGACUAUUACUGAGAAGGCACAUGAGGAUCACCCAUGUUGCGG [Mat - Exclusion 4 - Eli Mod - D48] (Eterna round: R97, puzzle: Exclusion 4)	33.9	38.2	–
CCGGAAAGGAAGGAUAUGCUAGACGAAAGUCUAGCAGAAGGUCCUACAUGAGGAUCACCCAUGUGGUCCUCCGG [Eli x6 4.06] (Eterna round: R97, puzzle: Exclusion 6)	298	1470	–
CCGGAAAUACAGGAUAUAGGAGUCGAUAGACUCCUAGAAGGGUAUACAUGAGGAUCACCCAUGUGUCCUACCGG [Fiskers Ex 6 - 70] (puzzle: Exclusion 6)	–	–	apparent KD of MS2 coat protein [2]: 22.8 nM
CCGGAACAUGAGGAUCACCCAUGUCAGGAUAUCUCAAAAUCGUCGAAAGACGAUAACAAGAGAAGGGACACCGG [Eli x1 4.30] (Eterna round: R97, puzzle: Exclusion 1)	20.9	16.4	–
CCGGAAGUACAGGAUAUCGUAACGGAAACGUUACGAGAAGGGUAUACAUGAGGAUCACCCAUGUGUCCUACCGG [Mat - Exclusion 6 - Eli Mod - D93] (puzzle: Exclusion 6)	–	–	apparent KD of MS2 coat protein [2]: 22.6 nM
